The text below walks through data of patent US20220048991A1 (BIOND BIOLOGICS, published 2022).

Assay [1] concerns the target T1, recombinant ILT2 (human) (human, UniProt Q8NHL6 24-461).
T1 construct: also called recombinant ILT2 peptide; ILT2 protein
In words: SPR (Biacore T200), HEK EBNA supernatants on recombinant ILT2 peptide. As to the method: (§1) During grafting of the 15G8 CDRs, five heavy chains and four kappa light chains were generated. These chains were designated VH1-5 and Vk1-4. By combining each heavy chain with each light chain twenty different resultant antibodies are possible. All twenty possible antibodies were transiently expressed in HEK EBNA cells, and the supernatants were tested for binding to recombinant ILT2 peptide using a Biacore T200. The chimeric 15G8 antibody was used as control.
On the technique in general: In SPR one partner is held on a chip, and binding of the other changes the refractive index at the surface.

Assay [2] addresses T1, recombinant ILT2 (human). In words: SPR (Biacore T200); KD relative to Control (chimeric 15G8). As to the method:
as §1

T1 sequence (Q8NHL6 24-461 limits assumed): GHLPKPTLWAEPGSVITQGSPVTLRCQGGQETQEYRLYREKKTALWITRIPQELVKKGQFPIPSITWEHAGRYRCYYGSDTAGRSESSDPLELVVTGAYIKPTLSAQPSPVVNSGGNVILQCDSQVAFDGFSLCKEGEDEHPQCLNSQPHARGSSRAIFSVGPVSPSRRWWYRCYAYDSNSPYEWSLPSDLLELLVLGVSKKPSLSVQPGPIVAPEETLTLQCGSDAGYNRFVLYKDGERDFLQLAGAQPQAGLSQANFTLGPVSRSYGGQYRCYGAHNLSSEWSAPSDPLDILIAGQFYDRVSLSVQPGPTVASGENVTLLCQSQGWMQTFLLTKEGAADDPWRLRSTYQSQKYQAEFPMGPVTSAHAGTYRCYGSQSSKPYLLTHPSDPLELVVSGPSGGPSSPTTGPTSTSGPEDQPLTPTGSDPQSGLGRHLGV

B1: humanized 15G8 VH1/Vk1 (antibody, IgG4, V domains shown)
VH: DVQLQGSGPGLVKPSETLSLTCSVTGYSITSGYYWNWIRQFPGKKLEWMGYISYDGSNNYNPSLKNRITISRDTSKNQFSLKLNSVTAADTATYYCAHGYSYYYAMDAWGQGTSVTVSS
VL: DIQMTQSTSSLSASVGDRVTITCRTSQDISNYLNWYQQKPGKAVKLLISYTSRLHSGVPSRFSGSGSGTDYTLTISSLQQEDFATYFCQQGNTLPTFGQGTKLEIK
notes: Humanized IgG4 (S228P, L235E), kappa; tested as supernatant of transiently transfected HEK EBNA cells
For the molecule B1, in the assay with recombinant ILT2 (human) [1], the Kd came out at 8.77 nM, the koff was determined as 0.00931 s⁻¹ and the on-rate constant (kon) is 1.06e+06 M⁻¹ s⁻¹. Moreover, the “Relative KD” value with recombinant ILT2 (human) [2] is 0.7.

B2: humanized 15G8 VH2/Vk2 (antibody, IgG4, V domains shown)
VH: DVQLQGSGPGLVKPSETLSLTCSVTGYSITSGYYWNWIRQFPGKKLEWMGYISYDGSNNYNPSLKNRITISRDTSKNQFSLKLSSVTAADTATYYCAHGYSYYYAMDAWGQGTTVTVSS
VL: DIQMTQSPSSLSASVGDRVTITCRTSQDISNYLNWYQQKPGKAVKLLISYTSRLHSGVPSRFSGSGSGTDYTLTISSLQPEDFATYFCQQGNTLPTFGQGTKLEIK
notes: as for B1
As to B2, in the assay with recombinant ILT2 (human) [1], the Kd came out at 8.79 nM, the koff was 0.0066 s⁻¹ and the on-rate (kon) worked out at 752000 M⁻¹ s⁻¹. Besides, the “Relative KD” value with recombinant ILT2 (human) [2] turned out to be 0.7.

B3: humanized 15G8 VH1/Vk4 (antibody, IgG4, V domains shown)
VH: DVQLQGSGPGLVKPSETLSLTCSVTGYSITSGYYWNWIRQFPGKKLEWMGYISYDGSNNYNPSLKNRITISRDTSKNQFSLKLNSVTAADTATYYCAHGYSYYYAMDAWGQGTSVTVSS
VL: DIQMTQSPSSLSASVGDRVTITCRTSQDISNYLNWYQQKPGKAPKLLISYTSRLHSGVPSRFSGSGSGTDYTLTISSLQPEDFATYFCQQGNTLPTFGQGTKLEIK
notes: as for B1
For B3, in the assay with recombinant ILT2 (human) [1], the Kd was 18.7 nM, the off-rate (koff) was determined as 0.00854 s⁻¹ and the kon was determined as 457000 M⁻¹ s⁻¹. In addition, the “Relative KD” value with recombinant ILT2 (human) [2] worked out at 1.48.

B4: humanized 15G8 VH2/Vk1 (antibody, IgG4, V domains shown)
VH: DVQLQGSGPGLVKPSETLSLTCSVTGYSITSGYYWNWIRQFPGKKLEWMGYISYDGSNNYNPSLKNRITISRDTSKNQFSLKLSSVTAADTATYYCAHGYSYYYAMDAWGQGTTVTVSS
VL: DIQMTQSTSSLSASVGDRVTITCRTSQDISNYLNWYQQKPGKAVKLLISYTSRLHSGVPSRFSGSGSGTDYTLTISSLQQEDFATYFCQQGNTLPTFGQGTKLEIK
notes: as for B1
As to B4, in the assay with recombinant ILT2 (human) [1], the equilibrium dissociation constant (Kd) is 9.58 nM, the koff turned out to be 0.00728 s⁻¹ and the kon turned out to be 760000 M⁻¹ s⁻¹. For the same molecule, the “Relative KD” value with recombinant ILT2 (human) [2] was determined as 0.76.

B5: humanized 15G8 VH1/Vk2 (antibody, IgG4, V domains shown)
VH: DVQLQGSGPGLVKPSETLSLTCSVTGYSITSGYYWNWIRQFPGKKLEWMGYISYDGSNNYNPSLKNRITISRDTSKNQFSLKLNSVTAADTATYYCAHGYSYYYAMDAWGQGTSVTVSS
VL: DIQMTQSPSSLSASVGDRVTITCRTSQDISNYLNWYQQKPGKAVKLLISYTSRLHSGVPSRFSGSGSGTDYTLTISSLQPEDFATYFCQQGNTLPTFGQGTKLEIK
notes: as for B1
Take B5: in the assay with recombinant ILT2 (human) [1], the Kd was found to be 8.82 nM, the koff was found to be 0.00678 s⁻¹ and the kon was 769000 M⁻¹ s⁻¹. In addition, in the assay with recombinant ILT2 (human) [2], the “Relative KD” value was 0.7.

B6: humanized 15G8 VH2/Vk4 (antibody, IgG4, V domains shown)
VH: DVQLQGSGPGLVKPSETLSLTCSVTGYSITSGYYWNWIRQFPGKKLEWMGYISYDGSNNYNPSLKNRITISRDTSKNQFSLKLSSVTAADTATYYCAHGYSYYYAMDAWGQGTTVTVSS
VL: DIQMTQSPSSLSASVGDRVTITCRTSQDISNYLNWYQQKPGKAPKLLISYTSRLHSGVPSRFSGSGSGTDYTLTISSLQPEDFATYFCQQGNTLPTFGQGTKLEIK
notes: as for B1
For the molecule B6, in the assay with recombinant ILT2 (human) [1], the Kd was 14.2 nM, the koff stood at 0.00789 s⁻¹ and the kon was 554000 M⁻¹ s⁻¹. Also, in the assay with recombinant ILT2 (human) [2], the “Relative KD” value came out at 1.13.

B7: humanized 15G8 VH3/Vk1 (antibody, IgG4, V domains shown)
VH: DVQLQGSGPGLVKPSETLSLTCSVTGYSITSGYYWNWIRQPPGKGLEWMGYISYDGSNNYNPSLKNRITISRDTSKNQFSLKLSSVTAADTATYYCAHGYSYYYAMDAWGQGTTVTVSS
VL: DIQMTQSTSSLSASVGDRVTITCRTSQDISNYLNWYQQKPGKAVKLLISYTSRLHSGVPSRFSGSGSGTDYTLTISSLQQEDFATYFCQQGNTLPTFGQGTKLEIK
notes: as for B1
B7: in the assay with recombinant ILT2 (human) [1], the Kd is 8.52 nM, the koff was 0.00681 s⁻¹ and the kon worked out at 799000 M⁻¹ s⁻¹. Further, in the assay with recombinant ILT2 (human) [2], the “Relative KD” value was 0.68.

As usually defined, the Kd is the constant that tells how readily two partners part at equilibrium. What is called koff is the first-order rate constant of dissociation. The kon is the rate constant with which the complex forms.
